Laboratory results from article PMC3664923, “Structures of CD200/CD200 Receptor Family and Implications for Topology, Regulation, and Evolution” (Structure(London, England:1993), 2013).
Changes are numbered by the printed parent chain. “And” between values parts separate entries of the source, which are not always exact repeats. Equal values may be shown once. Read-outs that look alike come from different tables or passages of the source. Each block holds one molecule with its values, some of them ahead of it.

Assays:
[1] = target: CD200R (Mus musculus) (UniProt Q9ES57); conditions: cited from earlier work
[2] = target: CD200R (Mus musculus) (UniProt Q9ES57); conditions: cited from earlier work; remark: listed apart in the source
[3] = target: mouse CD200 (residues 1-232) CD4-Bio, mutant Q27K (mouse) (UniProt O54901); test: SPR; BIAcore 3000, 25°C, HBS; wild-type and mutant CD200 CD4-Bio and CD4 control (about 650 RU each) held by OX68 mAb amine coupled to a CM5 chip; serial dilutions of soluble CD200R injected (KD from equilibrium binding), mutants tested with CD200R at 0.5 μM and given as percent of wild type
[4] = target: mouse CD200 extracellular region (residues 1-232) tagged with rat CD4 domains 3 and 4 and a biotinylation site, wild type (mouse) (UniProt O54901); test: as above
[5] = target: T1, mouse CD200RLa (residues 1-237) CD4-Bio, triple mutant N63K, K66T, and L114F (mouse); test: SPR
T1 chain: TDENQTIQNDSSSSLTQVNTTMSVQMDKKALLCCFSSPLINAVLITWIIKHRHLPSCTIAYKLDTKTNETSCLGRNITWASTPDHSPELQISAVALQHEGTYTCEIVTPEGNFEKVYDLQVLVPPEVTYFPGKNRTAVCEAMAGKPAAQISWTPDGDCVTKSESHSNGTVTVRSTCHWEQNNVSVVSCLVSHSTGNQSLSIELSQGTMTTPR

[6] = target: T2, mouse CD200RLa (residues 1-237) CD4-Bio chimeric protein, wild type (mouse); test: SPR
T2 chain: T1 chain with K62N, T65K, F113L

[7] = target: T3, mouse CD200R (residues 1-232) CD4-Bio chimeric protein (mouse, UniProt Q9ES57 26-232); test: SPR
T3 chain: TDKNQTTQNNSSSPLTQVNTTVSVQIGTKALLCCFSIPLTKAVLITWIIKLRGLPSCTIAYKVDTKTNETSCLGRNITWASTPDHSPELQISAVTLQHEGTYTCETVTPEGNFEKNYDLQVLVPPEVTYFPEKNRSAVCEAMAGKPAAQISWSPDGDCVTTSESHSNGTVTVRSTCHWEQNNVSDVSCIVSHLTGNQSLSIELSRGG

[8] = target: mouse CD200RLa (residues 1-237) CD4-Bio, double mutant N63K K66T (mouse); test: SPR; BIAcore 3000, 25°C; CD200R and wild-type and mutant CD200RLa CD4-Bio held by OX68 on a CM5 chip; increasing concentrations of CD200 injected; KDs by nonlinear curve fitting
[9] = target: mouse CD200RLa (residues 1-237) CD4-Bio, mutant L114F (mouse, UniProt Q6XJV4 26-237, L114F); test: as above; conditions: one partner purified

Molecule: CD200 (from UniProt P41217)
- Kd [1]: 7 µM

Molecule: CD200 (from UniProt O54901)
- Kd [2]: 4 µM

- percent of wild-type binding response [3]: 150%
- Kd [4]: 0.5 µM
Molecule: mouse CD200R extracellular region with C-terminal polyhistidine tag (receptor)

- Kd [5]: 1.1 µM and 0.9 µM
- Kd [6]: > 40 µM
- Kd [7]: 0.6 µM
- Kd [8]: 18.4 µM
- Kd [9]: 4.2 µM
B1: mouse CD200 extracellular region with C-terminal polyhistidine tag (ligand, UniProt O54901 31-232, looked up)
chain: QVEVVTQDERKALHTTASLRCSLKTSQEPLIVTWQKKKAVSPENMVTYSKTHGVVIQPAYKDRINVTELGLWNSSITFWNTTLEDEGCYMCLFNTFGSQKVSGTACLTLYVQPIVHLHYNYFEDHLNITCSATARPAPAISWKGTGTGIENSTESHFHSNGTTSVTSILRVKDPKTQVGKEVICQVLYLGNVIDYKQSLDKG
modifications: N-linked sugars cut back to N-acetyl-glucosamine by Endoglycosidase Hf (crystallised form); NH2 terminus presumably cyclized glutamine (pyroglutamic acid)
notes: signal peptide in the construct; mouse CD200, extracellular region (two Ig-like domains), residues 1-232 of NP_034948; the range counts on the precursor; Protein in the flow-through of the concanavalin A column was crystallised; protein eluted from the column was used as the soluble ligand in SPR; also called soluble CD200; recombinant CD200
